Values after ≈ are worked out from the molar mass of the structure shown. Like-named read-outs stand apart in the source and are kept apart here. Where a SMILES comes first, the peptide text is derived from it. The star is where a group is joined. NEt(2-(20S-CPT-7-yl)ethyl) = CCN(CCc1c2c(nc3ccccc13)-c1cc3c(c(=O)n1C2)COC(=O)[C@]3(O)CC)*; X8 = CC[C@@]1(O)C(=O)OCc2c1cc1n(c2=O)Cc2c-1nc1ccccc1c2CCN(C1CCCC1)*; X1 = CC[C@@]1(O)C(=O)OCc2c1cc1n(c2=O)Cc2c-1nc1ccccc1c2CCN(C1CCC1)*; X3 = CC[C@@]1(O)C(=O)OCc2c1cc1n(c2=O)Cc2c-1nc1ccccc1c2CCN(C1CC1)*; X7 = CC[C@@]1(O)C(=O)OCc2c1cc1n(c2=O)Cc2c-1nc1ccccc1c2CCN(C)*; Propanoyl(3-maleimido) = O=C1C=CC(=O)N1CCC(=O)*; PEG6 = NCCOCCOCCOCCOCCOCCOCCC(=O)O
Experiments:
[1] = Tumor homogenate activation efficiency, breast cancer tissue (Examples 28, 37); format: in vitro ADME; conditions: pH 5.0, 37° C., 2 h; Table 5
Experimental: (§1) Buffer preparation: 50 mM PH buffer (MES), 250 mM NaCl, pH adjusted to 5.0 with 0.5 M of sodium hydroxide.
(§2) The polypeptide conjugate was prepared into a 1 mg/ml solution with pH 5.0 buffer, 100 μg of tumor tissue homogenate was added, (the tumor tissue homogenate was the homogenate of tumor tissues prepared with a Jingxin F6/10 handheld homogenizer), and the solution was placed at 37° C. for 2 h. The tumor tissue homogenate could effectively activate the polypeptide conjugate and release Belotecan, and the activation efficiencies of the drugs in tumor tissues were compared by high-performance liquid chromatography (HPLC) allowing determination of a decrease in the compounds and an increase in Belotecan:
(§3) Release percentage=peak area of Belotecan/total peak area of Belotecan and all other Belotecan-containing compounds
(§4) The polypeptide conjugate was prepared into a 1 mg/ml solution with pH 5.0 buffer, 100 μg of tumor tissue homogenate was added, (the tumor tissue homogenate was the homogenate of tumor tissues prepared with a Jingxin F6/10 handheld homogenizer), and the solution was placed at 37° C. for 2 h. The tumor tissue homogenate could effectively activate the polypeptide conjugate and release Belotecan, and the activation efficiencies of the drugs in tumor tissues were compared by HPLC allowing determination of a decrease in the compounds and an increase in Belotecan: […]

[2] = test system: A2780 (ovarian cancer); assay: cells; format: cell-based; conditions: CCK8, 48 h; Table 1
How it was run: (§5)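 Cells seeded at 5,000 cells/well in RPMI1640 or DMEM high-glucose with 10% FBS and 1 mM sodium pyruvate, exposed to graded drug concentrations for 48 h at 37° C., 5% CO2; 0.1% DMSO controls. CCK8 added for ~2 h, absorbance 450 nm; survival rates and IC50 calculated.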

[3] = test system: SJSA-1 (sarcoma tissue); assay: cells; format: cell-based; conditions: CCK8, 48 h; Table 1
How it was run: as §5

[4] = test system: A549 (non-small cell lung cancer); assay: cells; format: cell-based; conditions: CCK8, 48 h; Table 1
How it was run: as §5

[5] = test system: SKBR3 (breast cancer tissue); assay: cells; format: cell-based; conditions: CCK8, 48 h; Table 1
How it was run: as §5

[6] = Tumor homogenate activation efficiency, sarcoma tissue (Examples 28, 37); format: in vitro ADME; conditions: pH 5.0, 37° C., 2 h; Table 5
Experimental: as §1, §2, §3, §4

[7] = Tumor homogenate activation efficiency, non-small cell lung cancer tissue (Examples 28, 37); format: in vitro ADME; conditions: pH 5.0, 37° C., 2 h; Table 5
Experimental: as §1, §2, §3, §4

[8] = Tumor homogenate activation efficiency, ovarian cancer tissue (Examples 28, 37); format: in vitro ADME; conditions: pH 5.0, 37° C., 2 h; Table 5
Experimental: as §1, §2, §3, §4

[9] = Tumor homogenate activation efficiency, small cell lung cancer tissue (Example 28); format: in vitro ADME; conditions: pH 5.0, 37° C., 2 h; Table 5
Experimental: as §1, §2, §3

[10] = Homogenate activation efficiency, heart tissue (Examples 28, 37); format: in vitro ADME; conditions: pH 5.0, 37° C., 2 h; Table 5
[11] = test system: colo320 colorectal cancer tumor model
How it was run: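 Female BALB/c nude mice, 6–8 weeks old, received 7.5×10^6 colo320 cells subcutaneously in the right chest. Once tumors reached at least 120 mm^3 they were randomized three per group. Treatment with test agents or saline control was given once weekly for four weeks.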

[12] = test system: sarcoma SJSA-1 tumor model; conditions: Table 2
How it was run: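 SJSA-1 cells (2×10^7, DMEM/10% FBS, under 15 passages) implanted subcutaneously in right chest of female BALB/c nude mice, 6-8 weeks old. At ≥100 mm^3, randomized three per group; dosing once weekly for three weeks, saline as control, day 1 = first treatment.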

[13] = MTD determination in mice (Examples 27, 36, 44); format: in vivo; conditions: female, mouse, in vivo; mice, monitored for 14 d; Table 4
Text: Test animals: 6-8 weeks old mice, all female; mice were grouped randomly, with six mice in each group, administered with drugs at different concentration gradients separately and monitored for 14 d. A mouse was euthanized at a loss of 20% of its initial weight and deemed to have died of poisoning.

[14] = 15 mg/kg once a week for four weeks, Table 3
[15] = 45 mg/kg once a week for four weeks, Table 3
[16] = 15 mg/kg once a week for three weeks
[17] = 45 mg/kg once a week for three weeks
[18] = Table 14 (Example 43), dose 45 mg/kg, once a week for four weeks, BALB/c mice
[19] = Table 13 (Example 42), dose 45 mg/kg, once a week for four weeks, BALB/c mice

| Compound | Percentage of release efficiency (%) Breast cancer tissue (SKBR3) [1] [%] | IC50 A2780 (ovarian cancer) [2] [µg/mL] | IC50 SJSA-1 (sarcoma tissue) [3] [µg/mL] | IC50 A549 (non-small cell lung cancer) [4] [µg/mL] | IC50 SKBR3 (breast cancer tissue) [5] [µg/mL] | Percentage of release efficiency (%) Sarcoma tissue (SJSA1) [6] [%] | Percentage of release efficiency (%) Non-small cell lung cancer tissue (A549) [7] [%] | Percentage of release efficiency (%) Ovarian cancer tissue (A2780) [8] [%] | Percentage of release efficiency (%) Small cell lung cancer tissue (NCI-H841) [9] [%] | Percentage of release efficiency (%) Heart tissue [10] [%] | Mouse weight (%) [11, 14] | Mouse weight (%) [11, 15] | Mouse weight (%) [12, 16] | Mouse weight (%) [12, 17] | MTD at 14 d [13] [mg/kg] | colo320 (colorectal cancer cell) growth rate (%) [11, 15] [%] | colo320 (colorectal cancer cell) mean tumor volume (mm^3) [11, 15] [mm^3] | further results |
| --- | --- | --- | --- | --- | --- | --- | --- | --- | --- | --- | --- | --- | --- | --- | --- | --- | --- | --- |
| CC[C@@]1(O)C(=O)OCc2c1cc1n(c2=O)Cc2c-1nc1ccccc1c2CCN(C(=O)CNC(=O)[C@H](Cc1ccccc1)NC(=O)CNC(=O)CNC(=O)CCOCCOCCOCCOCCOCCOCCNC(=O)CCN1C(=O)C=CC1=O)C1CC1 [MI-6PEG-GGFG-D6] ({Propanoyl(3-maleimido)-PEG6}-GGFG-X3) | 67.1 | 1.19 (≈ 0.963 µM) | 0.73 (≈ 0.59 µM) | 1.31 (≈ 1.06 µM) | 2.30 (≈ 1.86 µM) | 80.7 | 83.7 | 66.3 | 72.1 | 2.4 | +29% | +19% | +28% | +2% |  |  |  |  |
| CCN(CCc1c2c(nc3ccccc13)-c1cc3c(c(=O)n1C2)COC(=O)[C@]3(O)CC)C(=O)CNC(=O)[C@H](CC(N)=O)NC(=O)[C@H](C)NC(=O)CNC(=O)CCOCCOCCOCCOCCOCCOCCNC(=O)CCN1C(=O)C=CC1=O [MI-6PEG-GANG-D2] ({Propanoyl(3-maleimido)-PEG6}-GANG-{NEt(2-(20S-CPT-7-yl)ethyl)}) | 68.8 |  |  |  |  | 88.4 | 65.9 | 69.9 | 63.1 | 1.7 |  | +39% |  | +18% | 200 | 450.72 | 499.2 | Mouse weight (%) [11, 18]: +39%; colo320 (colorectal cancer cell) growth rate (%) [11, 18]: 450.72%; colo320 (colorectal cancer cell) mean tumor volume (mm^3) [11, 18]: 499.2 mm^3; SJSA-1 (sarcoma tissue) mean tumor volume (mm^3) [12, 17]: 1065.2 mm^3; SJSA-1 (sarcoma) Growth rate (%) [12, 17]: 918.28% |
| CC[C@@]1(O)C(=O)OCc2c1cc1n(c2=O)Cc2c-1nc1ccccc1c2CCN(C(=O)CNC(=O)[C@H](Cc1ccccc1)NC(=O)CNC(=O)CNC(=O)CCOCCOCCOCCOCCOCCOCCNC(=O)CCN1C(=O)C=CC1=O)C1CCCC1 [MI-6PEG-GGFG-D8] ({Propanoyl(3-maleimido)-PEG6}-GGFG-X8) | 81.2 | 3.77 (≈ 2.98 µM) | 2.35 (≈ 1.86 µM) | 4.93 (≈ 3.9 µM) | 11.26 (≈ 8.91 µM) | 72.7 | 77.5 | 76 | 66.7 | 3.1 |  | +17% | +19% |  | 250 |  |  |  |
| CC[C@@]1(O)C(=O)OCc2c1cc1n(c2=O)Cc2c-1nc1ccccc1c2CCN(C(=O)CNC(=O)[C@H](CC(N)=O)NC(=O)[C@H](C)NC(=O)[C@H](C)NC(=O)CCOCCOCCOCCOCCOCCOCCNC(=O)CCN1C(=O)C=CC1=O)C1CCCC1 [MI-6PEG-AANG-D8] ({Propanoyl(3-maleimido)-PEG6}-AANG-X8) | 70.9 | 1.21 (≈ 0.961 µM) | 0.87 (≈ 0.691 µM) | 2.51 (≈ 1.99 µM) | 2.55 (≈ 2.02 µM) | 71.1 | 85.1 | 70.1 | 80.8 | 3 |  | +21% | +35% |  | 400 |  |  |  |
| CC[C@@]1(O)C(=O)OCc2c1cc1n(c2=O)Cc2c-1nc1ccccc1c2CCN(C)C(=O)CNC(=O)[C@H](Cc1ccccc1)NC(=O)CNC(=O)CNC(=O)CCOCCOCCOCCOCCOCCOCCNC(=O)CCN1C(=O)C=CC1=O [MI-6PEG-GGFG-D1] ({Propanoyl(3-maleimido)-PEG6}-GGFG-X7) | 74.8 | 6.84 (≈ 5.65 µM) | 11.79 (≈ 9.74 µM) | 10.78 (≈ 8.91 µM) | 16.49 (≈ 13.6 µM) | 81.5 | 71.7 | 67.2 | 66.3 | 1.7 |  | +19% |  |  | 250 | 605.35 | 671.3 | Mouse weight (%) [11, 19]: +19%; colo320 (colorectal cancer cell) growth rate (%) [11, 19]: 605.35%; colo320 (colorectal cancer cell) mean tumor volume (mm^3) [11, 19]: 671.3 mm^3 |
| CC[C@@]1(O)C(=O)OCc2c1cc1n(c2=O)Cc2c-1nc1ccccc1c2CCN(C(=O)CNC(=O)[C@H](Cc1ccccc1)NC(=O)CNC(=O)CNC(=O)CCOCCOCCOCCOCCOCCOCCNC(=O)CCN1C(=O)C=CC1=O)C1CCC1 [MI-6PEG-GGFG-D7] ({Propanoyl(3-maleimido)-PEG6}-GGFG-X1) | 72.7 | 1.68 (≈ 1.34 µM) | 1.28 (≈ 1.02 µM) | 1.32 (≈ 1.06 µM) | 2.40 (≈ 1.92 µM) | 69.7 | 75.2 | 73.6 | 76.4 | 2.9 | +28% | +20% | +24% | +27% |  |  |  |  |

— patent US20250235545A1, “POLYPEPTIDE CONJUGATE AND USE THEREOF” (SHANGHAI CHIXI BIOMEDICAL TECHNOLOGY CO., LTD, priority 2024, published 2025)
